Where “and” joins values, the source holds several entries; their conditions need not be identical. Equal values may be shown once.
Molecular target: slipper limpet hemocyanin (Crepidula fornicata) (Crepidula fornicata)
Assay: cryo-EM structure; SLH (ion exchange flow-through) at 15 mg/ml, Chameleon grids, Glacios microscope, Relion 3.1; didecamer built with d5, tridecamer with c5 symmetry

stoichiometry N: 20 and 30
Substance: slipper limpet hemocyanin (Crepidula fornicata) (natural protein)

Source: PMC10286996
